Consider seven molecules from patent publication US20050182242A1, “Global analysis of protein activities using proteome chips” (priority 2001, published 2005).

What all share (settings): liposome binding signal on yeast proteome chip, Cy3-streptavidin detection
In one data set the test system is PI(3,4,5)P3 liposomes. The data set can be described thus: Yeast proteome chip probed with PI(3,4,5)P3 liposomes. The text has this: (§1) To identify PI-binding proteins in yeast, liposomes were used as probes because the liposome provides the most relevant physiological condition to assay the interactors. Six types of liposomes were used. Each contains phosphatidylcholine (“PC”) with 1% (w/w) N-(biotinoyl)-1,2-dihexadecanoyl-sn-glycero-3-phosphoethanolamine, triethylammonium salt (biotin DHPE). The biotinylated lipid serves as a label that can be detected by Cy3-streptavidin (21). In addition to PC, the five other liposomes contain either 5% (w/w) PI(3)P, PI(4)P, PI(3,4)P2, PI(4,5)P2, or PI(3,4,5)P3 (FIG. 3A).
(§2) The protein-liposome interaction was assayed as follows. Appropriate amounts of each lipid in chloroform were mixed and dried under nitrogen. The lipid mixture was resuspended in TBS buffer by vortexing. The liposomes were created by sonication. Blocked proteome chips were washed three to five times in PBS buffer, and the extra liquid on the glass surface was removed by tapping the slides vertically on a KIMWIPE™. 200 μl of liposome solution was added to the proteome chip and immediately covered by a hydrophobic plastic cover slip (GRACE BIO-LAB™, USA). After trapped air bubbles were removed, the chip was incubated in a humidity chamber at RT for one hour. To remove the cover slip, the chip was immersed into large volume of PBS buffer (50 ml), so that the slip would float away. The chip was then moved to a second PBS bath (>50 ml) and washed 3×5 min with shaking at RT. After removing extra liquid on the surface of the chip, about 100 μl of Cy3 or Cy5 conjugated streptavidin (PIERCE™, USA; 1:2000 to 1:4000 dilution) was added to the surface and covered by a hydrophobic plastic cover slip (GRACE BIO-LABS™, USA). The chip was incubated for greater than 30 min in the dark at RT. The chip was then washed as described above. To completely remove the liquid on the chip, the chip was spun to dryness at 1500-2000 rpm for 5-10 min at RT.
(§3) • 1. S. Fields, Y. Kohara, D. J. Lockhart, Proc. Natl. Acad. Sci. 96, 8825 (1999); A. Goffeau et al., Science 274, 563 (1996). • 2 P. Ross-Macdonald et al., Nature 402, 413 (1999); J. L., DeRisi, V. R. Iyer, P. O. Brown, Science 278, 680 (1997); E. A. Winzeler et al., Science 285, 901 (1999). P. Uetz et al., Nature 403, 623 (2000); T. Ito et al., Proc. Natl. Acad. Sci. USA. 97, 1143 (2000) • 3 H. Zhu, M. Snyder, Curr. Opin. Chem. Biol. 5, 40 (2001). • 4 M. R. Martzen et al., Science 286, 1153 (1999). • 5 H. Zhu et al., Nat. Genet. 26, 283 (2000). • 6 G. MacBeath, S. L. Schreiber, Science 289, 1760 (2000). • 7 A. Caveman, J. Cell Sci. 113, 3543 (2000). • 8 P. Arenkov et al., Anal. Biochem 278, 123 (2000). • 9 D. A. Mitchell, T. K. Marshall, R. J. Deschenes, Yeast 9, 715 (1993). The expression vector pEGH was created by inserting an RGS-HisX6 epitope tag between the GST gene and the polycloning site of pEG(KG). The yeast ORFs were cloned using the strategy described previously (5), except every step was done in a 96-well format. Plasmid DNAs confirmed by DNA sequencing were reintroduced into both yeast (Y258) and E. coli (DH5a). […] 0.1 mM calcium was present in buffers in all subsequent steps. The chip was washed three times with PBS at RT. Cy3-conjugated streptavidin (Jackson IR, USA) (1:5000 dilution) was added to the chip and incubated for 30 min at RT. After extensive washing, the chip was spun dry and scanned using a microarray scanner; the data was subsequently acquired with the GENEPIX™ array densitometry software (Axon, USA). • 12 S. S. Hook, A. R. Means, Annu. Rev. Pharmacol. Toxicol.41, 471 (2001). • 13 M. S. Cyert, R. Kunisawa, D. Kaim, J. Thorner, Proc. Natl. Acad. Sci. USA 88, 7376 (1991). • 14 D. A. Stirling, K. A. Welch, M. J. Stark, EMBO J. 13, 4329 (1994). • 15 F. Bohl, Kruse, EMBO J. 19, 5514 (2000); E. Bertrand et al., Mol. Cell 2, 437 (1998). • 16 D. C. Winter, E. Y. Choe, R. Li, Proc. Nat. Acad Sci. USA 96, 7288 (1999). • 17 C.

The next data set has as its system PI(3,4)P2 liposomes. The data set can be described thus: Yeast proteome chip probed with PI(3,4)P2 liposomes.
From the text: as §1, §2, §3

Another data set concerns PI(4)P liposomes. The data set can be described thus: Yeast proteome chip probed with PI(4)P liposomes.
From the text: as §1, §2, §3

Data set [1] has as its system phosphatidylcholine (PC) liposomes. The data set can be described thus: Yeast proteome chip probed with PC liposomes.
From the text: as §1, §2, §3

The subject of a further data set is PI(4,5)P2 liposomes. The data set can be described thus: Yeast proteome chip probed with PI(4,5)P2 liposomes.
From the text: as §1, §2, §3

B1: DFG5: yeast GST-HisX6 fusion protein on proteome chip (protein, UniProt Q05031 27-437, looked up)
Mannan …: MDLDTTSKTSICDATALIQGGMLDYYEGTRYGGTVGMFQSPYYWWHAGEAFGGMLENWFLCENDTYQELLYDALLAQTGSNYDYIPSNQTMVEGNDDQGIWGITVMGAVERNFTDPGDGKPGWLAMVQAVFNTMYSRWDSEHCGGGLRWQIFTWNSGYNYKNTVSNACLFQIAARLGRYTGNTTYLEVAEQVFDWLVDVGYVVLNDTANVFDGAEIDTNCTDITKIEWTYNHGIVLGGLAYMYNATNGTGEWETSLTKILNGAKSYFFKDSIMYESACQDYGTCNTDQRTFKSIFSRMLGLTSVMAPFTRDTIDDLIKTSAEAAAKSCNGGTDGHTCGLNWQKQTNDGYYGLGEQMSALEVIQNLLIHDRPAPYKEDNGGTSKGDANAGMNSSTTNVLQNNLNIKKGDRAG
modifications: GST-His6 tag
notes: yeast GST-HisX6 fusion protein on proteome chip
Regarding B1, the “PI(3, 4, 5)P3” value in the data set with PI(3,4,5)P3 liposomes is given as 60.98. Also, the “PI(3, 4)P2” value in the data set with PI(3,4)P2 liposomes turned out to be 48.66. Also, the “PI(4)P” value with PI(4)P liposomes is 19.81. Further, in data set [1], the PC turned out to be 127.66.

B2: GFD1: yeast GST-HisX6 fusion protein on proteome chip (protein, UniProt Q04839 1-188, looked up)
mRNA transport factor GFD1: MPLESIWADAPDEEPIKKQKPSHKRSNNNKKNNNSRWSNESSSNNKKKDSVNKVKNNKGNHESKTKNKIKETLPREKKPPHSQGKISPVSESLAINPFSQKATEISPPPVSPSKMKTTKTQSKQDTASKMKLLKKKIEEQREILQKTHHKNQQQQVLMDFLNDEGSSNWVDDDEEELILQRLKTSLKI
modifications: GST-His6 tag
notes: as for B1
B2: in the data set on PI(3,4,5)P3 liposomes, the “PI(3, 4, 5)P3” value stood at 3.38. Moreover, the “PI(3, 4)P2” value with PI(3,4)P2 liposomes is on record as −0.78. In addition, in the data set on PI(4)P liposomes, the “PI(4)P” value is listed as −0.22. Further, the PC in data set [1] turned out to be 4.99.

B3: MPD2: yeast GST-HisX6 fusion protein on proteome chip (protein, UniProt Q99316 23-277, looked up)
Protein disulfide isomerase …: YSEAVTMVKSIEQYFDICNRNDSYTMIKYYTSWCQHCKTLAPVYEELGELYAKKANKDDTPINFLEVNCEFFGPTLCTDLPGFPIIELVKPRTKPLVLPKLDWSSMKFHERLWQRIKTWFNNPKYQLDTSRVVRFEGSRNLKSLSNFIDTVRSKDTEERFIEHIFDDSRNCNEELRSQQLLCKAGKEYYSDTLSKLYGDVNGLEKERRRLEALIKQNGDDLSKEVKEKLKIIRLQLSLLSHIEDQLEDTSSHDEL
modifications: GST-His6 tag
notes: as for B1
In the case of B3, in the data set on PI(3,4,5)P3 liposomes, the “PI(3, 4, 5)P3” value came to 15.07. The “PI(3, 4)P2” value in the data set with PI(3,4)P2 liposomes worked out at 31.71. Further, the “PI(4)P” value with PI(4)P liposomes is on record as 37.45. The same molecule registered a PC in data set [1] of 25.24. In addition, in the data set with PI(4,5)P2 liposomes, the “PI(4, 5)P2” value came to 8.71.

B4: CAM1: yeast GST-HisX6 fusion protein on proteome chip (protein, UniProt P29547 2-415, looked up)
Elongation factor 1-gamma 1: SQGTLYANFRIRTWVPRGLVKALKLDVKVVTPDAAAEQFARDFPLKKVPAFVGPKGYKLTEAMAINYYLVKLSQDDKMKTQLLGADDDLNAQAQIIRWQSLANSDLCIQIANTIVPLKGGAPYNKKSVDSAMDAVDKIVDIFENRLKNYTYLATENISLADLVAASIFTRYFESLFGTEWRAQHPAIVRWFNTVRASPFLKDEYKDFKFADKPLSPPQKKKEKKAPAAAPAASKKKEEAKPAATETETSSKKPKHPLELLGKSTFVLDDWKRKYSNEDTRPVALPWFWEHYNPEEYSLWKVTYKYNDELTLTFMSNNLVGGFFNRLSASTKYMFGCLVVYGENNNNGIVGAVMVRGQDYVPAFDVAPDWESYDYAKLDPTNDDDKEFINNMWAWDKPVSVNGEPKEIVDGKVLK
modifications: GST-His6 tag
notes: as for B1
Regarding B4, the “PI(3, 4, 5)P3” value with PI(3,4,5)P3 liposomes worked out at 4.16. Moreover, the “PI(3, 4)P2” value with PI(3,4)P2 liposomes is −0.16. The “PI(4)P” value with PI(4)P liposomes stood at 21.99. In addition, the PC in data set [1] stood at 18.49. The “PI(4, 5)P2” value in the data set on PI(4,5)P2 liposomes stood at 25.69.

B5: RPL9B: yeast GST-HisX6 fusion protein on proteome chip (protein, UniProt P51401 1-191, looked up)
Large ribosomal subunit …: MKYIQTEQQIEIPEGVTVSIKSRIVKVVGPRGTLTKNLKHIDVTFTKVNNQLIKVAVHNGDRKHVAALRTVKSLVDNMITGVTKGYKYKMRYVYAHFPINVNIVEKDGAKFIEVRNFLGDKKIRNVPVRDGVTIEFSTNVKDEIVLSGNSVEDVSQNAADLQQICRVRNKDIRKFLDGIYVSHKGFIVEDM
modifications: GST-HisX6 tag
notes: as for B1
Take B5: in the data set on PI(3,4,5)P3 liposomes, the “PI(3, 4, 5)P3” value was −0.45. Besides, the “PI(3, 4)P2” value with PI(3,4)P2 liposomes was 7.38. The “PI(4)P” value in the data set with PI(4)P liposomes is recorded as 12.85. Also, in data set [1], the PC was found to be 6.46. Besides, the “PI(4, 5)P2” value in the data set on PI(4,5)P2 liposomes was determined as 1.96.

B6: CCT8: yeast GST-HisX6 fusion protein on proteome chip (protein, UniProt P47079 1-568, looked up)
T-complex protein 1 subunit …: MSLRLPQNPNAGLFKQGYNSYSNADGQIIKSIAAIRELHQMCLTSMGPCGRNKIIVNHLGKIIITNDAATMLRELDIVHPAVKVLVMATEQQKIDMGDGTNLVMILAGELLNVSEKLISMGLSAVEIIQGYNMARKFTLKELDEMVVGEITDKNDKNELLKMIKPVISSKKYGSEDILSELVSEAVSHVLPVAQQAGEIPYFNVDSIRVVKIMGGSLSNSTVIKGMVFNREPEGHVKSLSEDKKHKVAVFTCPLDIANTETKGTVLLHNAQEMLDFSKGEEKQIDAMMKEIADMGVECIVAGAGVGELALHYLNRYGILVLKVPSKFELRRLCRVCGATPLPRLGAPTPEELGLVETVKTMEIGGDRVTVFKQEQGEISRTSTIILRGATQNNLDDIERAIDDGVAAVKGLMKPSGGKLLPGAGATEIELISRITKYGERTPGLLQLAIKQFAVAFEVVPRTLAETAGLDVNEVLPNLYAAHNVTEPGAVKTDHLYKGVDIDGESDEGVKDIREENIYDMLATKKFAINVATEAATTVLSIDQIIMAKKAGGPRAPQGPRPGNWDQED
modifications: GST-His6 tag
notes: as for B1
Consider B6, for which the “PI(3, 4, 5)P3” value with PI(3,4,5)P3 liposomes is given as 33.97. Further, the “PI(3, 4)P2” value with PI(3,4)P2 liposomes worked out at 7.53. The “PI(4)P” value in the data set on PI(4)P liposomes is listed as 23.52. In data set [1], the PC is given as 22.30.

B7: DIN7: yeast GST-HisX6 fusion protein on proteome chip (protein, UniProt Q12086 1-430, looked up)
DNA damage-inducible protein …: MGIPGLLPQLKRIQKQVSLKKYMYQTLAIDGYAWLHRASCACAFELVMNKPTNKYLQFFIKRLQLLKRLKIKPYIVFDGDSLFVKNHTETRRRKKRLENEMIAKKLWSAGNRYNAMEYFQKSVDITPEMAKCIIDYCKLHSIPYIVAPFEADPQMVYLEKMGLIQGIISEDSDLLVFGCKTLITKLNDQGKALEISKDDFSALPENFPLGELSEQQFRNLVCLAGCDYTSGIWKVGVVTAMKIVKRYSEMKDILIQIERTEKLCFSKAFKQQVEFANYAFQYQRVFCPLSNQITTLNNIPKAVTNSHAEIIKIMKCIGSVVERGSGVRKDVINTKNIDHKVHEMIAKGELHPVDMASKLINRERKLKARKLFKVGLLGGESNSFNKKVEQPLVDTQDVLSERENSLDNKNASSIYMTSPAAISGTVPSIF
modifications: GST-His6 fusion tag
notes: as for B1
Take B7: the “PI(3, 4, 5)P3” value in the data set on PI(3,4,5)P3 liposomes is on record as 14.06. Moreover, in the data set on PI(3,4)P2 liposomes, the “PI(3, 4)P2” value turned out to be 10.05. For the same molecule, the “PI(4)P” value with PI(4)P liposomes amounted to 33.75. In addition, the PC in data set [1] is listed as 21.42. Moreover, in the data set on PI(4,5)P2 liposomes, the “PI(4, 5)P2” value came to 14.59.
